This note sets out measurements from article PMC8764063.

This assay deals with T1, IRF3 (human (endogenous in U2OS)), Q14653.
T1 chain: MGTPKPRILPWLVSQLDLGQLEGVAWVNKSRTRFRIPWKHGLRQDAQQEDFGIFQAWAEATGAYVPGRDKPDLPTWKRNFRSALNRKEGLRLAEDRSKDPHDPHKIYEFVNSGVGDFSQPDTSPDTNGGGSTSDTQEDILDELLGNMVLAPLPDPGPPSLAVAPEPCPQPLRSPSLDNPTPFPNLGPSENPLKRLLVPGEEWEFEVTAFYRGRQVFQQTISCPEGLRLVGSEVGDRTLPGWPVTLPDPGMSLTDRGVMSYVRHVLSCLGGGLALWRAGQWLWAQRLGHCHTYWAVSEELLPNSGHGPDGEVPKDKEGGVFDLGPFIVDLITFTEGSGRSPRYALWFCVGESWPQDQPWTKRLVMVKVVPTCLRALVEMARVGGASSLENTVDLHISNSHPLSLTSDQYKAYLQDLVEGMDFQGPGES
As to the kind of experiment: native gel or EMSA; native gel and Western blot for IRF3 of lysates (TBS lysis buffer: 20 mM Tris pH 7.5, 150 mM NaCl, 0.5% NP-40) of wild-type, PARP1 D214N or PARP1 KO U2OS cells with or without poly(dA-dT) (5 ug/ml, six hours); monomer to dimer. To be noted: remark: other sources report otherwise. In general terms: In EMSA bound probe runs differently from free probe, usually more slowly.

B1: IRF3, Q14653 1-427 (natural protein)
chain: T1 chain
Regarding B1, the stoichiometry N (as a rule, the number of molecules, sites or subunits per partner or assembly) amounted to 2.
